From PMC11046469, “Leveraging a Phage-Encoded Noncanonical Amino Acid: A Novel Pathway to Potent and Selective Epigenetic Reader Protein Inhibitors” (ACS Central Science, 2024)

Target: T1, ENL YEATS domain (AviSUMO-ENL YEATS) (Homo sapiens, UniProt Q03111)
T1 construct: encoding ENL YEATS (aa 1−148) was cloned in pET28a-; made in house; host or cells: E. coli BL21(DE3pLysS), co-expressed with BirA (pBirAcm)
T1 sequence (Q03111 1-148): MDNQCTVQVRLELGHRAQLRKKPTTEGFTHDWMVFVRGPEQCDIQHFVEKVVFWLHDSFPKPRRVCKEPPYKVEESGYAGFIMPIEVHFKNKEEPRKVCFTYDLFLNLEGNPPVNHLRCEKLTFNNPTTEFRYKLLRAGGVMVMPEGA
Assay: Phage panning of BuK-containing 7-mer library against AviSUMO-ENL YEATS with Illumina NGS abundance
Conditions: sheet ENLR3: round 3 of panning against ENL YEATS; TAG = amber codon (BuK); 7-mer library positions V1-V7
Excerpt: We utilized a previously established amber-obligate 7-mer phage display library to develop a phage display library enriched with BuK-containing 7-mer peptides. For detailed characterizations, including analysis of amber codon percentages, NNK trinucleotide analysis, and amino acid distribution at each position within the library, please refer to the work of Tharp et al.[10] Furthermore, the comprehensive raw NGS data for the amber-obligate 7-mer phage library can be found in the NCBI’s Sequence Read Archive, under the accession ID PRJNA606283. To produce the BuK-containing 7-mer phage library, the phages were produced in the presence of 5 mM BuK using TOP10 cells harboring the following three plasmids: (1) pADL-gIII, which contains the 7-mer amber-obligate peptide-coding DNA library positioned at the N-terminus of M13 pIII gene; (2) pCDF-BuKRS, which encodes BuKRS and its cognate tRNA^Pyl for the genetic incorporation of BuK at amber codons in the 7-mer library; and (3) M13KO7TAA, a helper phage plasmid engineered to have a TAA mutation at pIII so that its lack of a functional pIII allows an efficient multivalent display of the 7-mer library. The ENL YEATS domain containing an N-terminal AviSUMO-Tag was recombinantly expressed in E. coli together with BirA, a biotin ligase, for site-specific biotinylation at the AviTag. The biotinylated AviSUMO-ENL YEATS was immobilized on streptavidin-coated magnetic beads for panning with the BuK-containing phages. […] Phage libraries collected from the first and third rounds of selection were sequenced using Illumina next generation sequencing (NGS) and all sequenced data are available through the NCBI SRA database (Project PRJNA1041845). To prevent possible sequencing errors from affecting conclusions, sequences were filtered using previously published paired-end processing,[10] where any sequences containing more than one mismatch in the nonlibrary region or any mismatch in the library region were discarded. The NGS data provided DNA sequences encompassing both the library and nonlibrary regions. In our analysis, we included data from the nonlibrary region as a stringent quality control measure to filter out low-quality data. For our analysis, we utilized 51 nucleotides from the NGS output, with 21 nucleotides encoding the library region and an additional 30 nucleotides for the nonlibrary region. […] Among all the sequences, only 85 of them contained more than 100 copies (blue area), while the remaining sequences all had low abundances (<10^2 copies, dark and light gray areas), which constituted 85.2% of the first round population. After three panning rounds, the selection converged to two highly enriched sequences: YDVYCYX (ENL-S1) and WWIIEXG (ENL-S2, X denotes BuK). Out of 551 different unique sequences collected from the third round, ENL-S1 and ENL-S2 represented 85% of the entire library (Figure 2A and Figures S6–S8). Both peptide sequences corresponded to their own unique DNA sequence, rather than there being varying codons encoding the same amino acids (Figure S7). […] Two motifs were found in the majority of sequences with high abundance (greater than 0.1%) (Figure S6). A Y(C/L)Y pattern was identified in the residues adjacent to BuK in four of the eight top sequences. Also, an H(L/Y)(T/V)LFXG (X denotes BuK) motif was observed, albeit at lower abundances, in two of the top sequences. In the initial round of selection, we observed that only a small percentage of phages were eluted, which aligns with typical outcomes in phage selection experiments since only a low copy number of phages can bind to the target.[10],[45] With each successive round of selection, we noted a gradual increase in the percentage of phages eluted. This incremental, rather than sharp, increase was attributed to the intensification of selection pressures, such as the application of more stringent washing protocols. We aimed for the incremental increase to retain potent clones with low copy numbers from the previous selection cycle. […]

Substance: ATAGSFHYL
- n (number of NGS reads of the unique amino acid sequence): 1
- percent (share of sequence reads): 0.0009106%

Substance: CCWTAGGGN
- n (number of NGS reads of the unique amino acid sequence): 2
- percent (share of sequence reads): 0.001821%

Substance: CDVYCYTAG
- n (number of NGS reads of the unique amino acid sequence): 10
- percent (share of sequence reads): 0.009106%

Substance: CFFTAGIMC
- n (number of NGS reads of the unique amino acid sequence): 1
- percent (share of sequence reads): 0.0009106%

Substance: CHMLCTAGD
- n (number of NGS reads of the unique amino acid sequence): 56
- percent (share of sequence reads): 0.05099%

Substance: CHNWICTAG
- n (number of NGS reads of the unique amino acid sequence): 1
- percent (share of sequence reads): 0.0009106%

Substance: CLPWTAGSS
- n (number of NGS reads of the unique amino acid sequence): 7
- percent (share of sequence reads): 0.006374%

Substance: CPCWTAGLL
- n (number of NGS reads of the unique amino acid sequence): 1
- percent (share of sequence reads): 0.0009106%

Substance: CTAGGGSLF
- n (number of NGS reads of the unique amino acid sequence): 1
- percent (share of sequence reads): 0.0009106%

Substance: CTYVITAGV
- n (number of NGS reads of the unique amino acid sequence): 1
- percent (share of sequence reads): 0.0009106%

Substance: CWGFEKTAG
- n (number of NGS reads of the unique amino acid sequence): 1
- percent (share of sequence reads): 0.0009106%

Substance: CWIIETAGG
- n (number of NGS reads of the unique amino acid sequence): 22
- percent (share of sequence reads): 0.02003%

Substance: CWSTAGNGD
- n (number of NGS reads of the unique amino acid sequence): 1
- percent (share of sequence reads): 0.0009106%

Substance: CWVCLPH
- n (number of NGS reads of the unique amino acid sequence): 1
- percent (share of sequence reads): 0.0009106%

Substance: CWVCTAGPH
- n (number of NGS reads of the unique amino acid sequence): 74
- percent (share of sequence reads): 0.06739%

Substance: CYDLCTAGG
- n (number of NGS reads of the unique amino acid sequence): 21
- percent (share of sequence reads): 0.01912%

Substance: CYDLCYG
- n (number of NGS reads of the unique amino acid sequence): 1
- percent (share of sequence reads): 0.0009106%

Substance: CYPTAGKCC
- n (number of NGS reads of the unique amino acid sequence): 1
- percent (share of sequence reads): 0.0009106%

Substance: CYVCRFL
- n (number of NGS reads of the unique amino acid sequence): 1
- percent (share of sequence reads): 0.0009106%

Substance: DDVYCYTAG
- n (number of NGS reads of the unique amino acid sequence): 7
- percent (share of sequence reads): 0.006374%

Substance: DLVYCYTAG
- n (number of NGS reads of the unique amino acid sequence): 1
- percent (share of sequence reads): 0.0009106%

Substance: DMFRSTAGI
- n (number of NGS reads of the unique amino acid sequence): 1
- percent (share of sequence reads): 0.0009106%

Substance: FDVYCYTAG
- n (number of NGS reads of the unique amino acid sequence): 2
- percent (share of sequence reads): 0.001821%

Substance: FEISEWTAG
- n (number of NGS reads of the unique amino acid sequence): 2
- percent (share of sequence reads): 0.001821%

Substance: FKCTAGNGC
- n (number of NGS reads of the unique amino acid sequence): 1
- percent (share of sequence reads): 0.0009106%

Substance: FLFDTTAGT
- n (number of NGS reads of the unique amino acid sequence): 1
- percent (share of sequence reads): 0.0009106%

Substance: FLTRCML
- n (number of NGS reads of the unique amino acid sequence): 1
- percent (share of sequence reads): 0.0009106%

Substance: FLYTAGMPV
- n (number of NGS reads of the unique amino acid sequence): 1
- percent (share of sequence reads): 0.0009106%

Substance: FTAGIYTAA
- n (number of NGS reads of the unique amino acid sequence): 1
- percent (share of sequence reads): 0.0009106%

Substance: FTWSTAGED
- n (number of NGS reads of the unique amino acid sequence): 1
- percent (share of sequence reads): 0.0009106%

Substance: GRAVDTAGG
- n (number of NGS reads of the unique amino acid sequence): 1
- percent (share of sequence reads): 0.0009106%

Substance: HAIYCYTAG
- n (number of NGS reads of the unique amino acid sequence): 759
- percent (share of sequence reads): 0.6912%

Substance: HAIYFYTAG
- n (number of NGS reads of the unique amino acid sequence): 1
- percent (share of sequence reads): 0.0009106%

Substance: HCGPRTAGD
- n (number of NGS reads of the unique amino acid sequence): 10
- percent (share of sequence reads): 0.009106%

Substance: HCVLFTAGG
- n (number of NGS reads of the unique amino acid sequence): 1
- percent (share of sequence reads): 0.0009106%

Substance: HDVYCYTAG
- n (number of NGS reads of the unique amino acid sequence): 13
- percent (share of sequence reads): 0.01184%

Substance: HFTLFTAGG
- n (number of NGS reads of the unique amino acid sequence): 2
- percent (share of sequence reads): 0.001821%

Substance: HHVLFTAGG
- n (number of NGS reads of the unique amino acid sequence): 1
- percent (share of sequence reads): 0.0009106%

Substance: HIKCTAGII
- n (number of NGS reads of the unique amino acid sequence): 1
- percent (share of sequence reads): 0.0009106%

Substance: HLNLFTAGG
- n (number of NGS reads of the unique amino acid sequence): 2
- percent (share of sequence reads): 0.001821%

Substance: HLTFFTAGG
- n (number of NGS reads of the unique amino acid sequence): 3
- percent (share of sequence reads): 0.002732%

Substance: HLTLFTAGC
- n (number of NGS reads of the unique amino acid sequence): 2
- percent (share of sequence reads): 0.001821%

Substance: HLTLFTAGD
- n (number of NGS reads of the unique amino acid sequence): 4
- percent (share of sequence reads): 0.003642%

Substance: HLTLFTAGG
- n (number of NGS reads of the unique amino acid sequence): 2802
- percent (share of sequence reads): 2.552%

Substance: HLTLFTAGV
- n (number of NGS reads of the unique amino acid sequence): 4
- percent (share of sequence reads): 0.003642%

Substance: HLTLFYG
- n (number of NGS reads of the unique amino acid sequence): 3
- percent (share of sequence reads): 0.002732%

Substance: HMTLFTAGG
- n (number of NGS reads of the unique amino acid sequence): 1
- percent (share of sequence reads): 0.0009106%

Substance: HPIYCYTAG
- n (number of NGS reads of the unique amino acid sequence): 1
- percent (share of sequence reads): 0.0009106%

Substance: HSIYCYTAG
- n (number of NGS reads of the unique amino acid sequence): 1
- percent (share of sequence reads): 0.0009106%

Substance: HSTLFTAGG
- n (number of NGS reads of the unique amino acid sequence): 2
- percent (share of sequence reads): 0.001821%

Substance: HSWFTAGDG
- n (number of NGS reads of the unique amino acid sequence): 1
- percent (share of sequence reads): 0.0009106%

Substance: HTAGSFCRL
- n (number of NGS reads of the unique amino acid sequence): 1
- percent (share of sequence reads): 0.0009106%

Substance: HTRSMTAGN
- n (number of NGS reads of the unique amino acid sequence): 1
- percent (share of sequence reads): 0.0009106%

Substance: HVIYCYTAG
- n (number of NGS reads of the unique amino acid sequence): 2
- percent (share of sequence reads): 0.001821%

Substance: HYFLFTAGG
- n (number of NGS reads of the unique amino acid sequence): 1
- percent (share of sequence reads): 0.0009106%

Substance: HYVLFTAGG
- n (number of NGS reads of the unique amino acid sequence): 612
- percent (share of sequence reads): 0.5573%
